Experimental findings from publication PMC12363165 (2025) are described below.

B1: Vpu with LgBiT fused to its C-terminus (pBiT1.1-C-vpu) [HIV-1] / RBM10 fused to SmBiT (pBiT2.1-C-rbm10) [human] (parent complex)
chain 1: MQPIQIAIAALVVAIIIAIVVWSIVIIEYRKILRQRKIDRLIDRLIERAEDSGNESEGEISALVEMGVEMGHHAPWDIDDL
chain 2: MEYERRGGRGDRTGRYGATDRSQDDGGENRSRDHDYRDMDYRSYPREYGSQEGKHDYDDSSEEQSAEDSYEASPGSETQRRRRRRHRHSPTGPPGFPRDGDYRDQDYRTEQGEEEEEEEDEEEEEKASNIVMLRMLPQAATEDDIRGQLQSHGVQAREVRLMRNKSSGQSRGFAFVEFSHLQDATRWMEANQHSLNILGQKVSMHYSDPKPKINEDWLCNKCGVQNFKRREKCFKCGVPKSEAEQKLPLGTRLDQQTLPLGGRELSQGLLPLPQPYQAQGVLASQALSQGSEPSSENANDTIILRNLNPHSTMDSILGALAPYAVLSSSNVRVIKDKQTQLNRGFAFIQLSTIVEAAQLLQILQALHPPLTIDGKTINVEFAKGSKRDMASNEGSRISAASVASTAIAAAQWAISQASQGGEGTWATSEEPPVDYSYYQQDEGYGNSQGTESSLYAHGYLKGTKGPGITGTKGDPTGAGPEASLEPGADSVSMQAFSRAQPGAAPGIYQQSAEASSSQGTAANSQSYTIMSPAVLKSELQSPTHPSSALPPATSPTAQESYSQYPVPDVSTYQYDETSGYYYDPQTGLYYDPNSQYYYNAQSQQYLYWDGERRTYVPALEQSADGHKETGAPSKEGKEKKEKHKTKTAQQIAKDMERWARSLNKQKENFKNSFQPISSLRDDERRESATADAGYAILEKKGALAERQHTSMDLPKLASDDRPSPPRGLVAAYSGESDSEEEQERGGPEREEKLTDWQKLACLLCRRQFPSKEALIRHQQLSGLHKQNLEIHRRAHLSENELEALEKNDMEQMKYRDRAAERREKYGIPEPPEPKRRKYGGISTASVDFEQPTRDGLGSDNIGSRMLQAMGWKEGSGLGRKKQGIVTPIEAQTRVRGSGLGARGSSYGVTSTESYKETLHKTMVTRFNEAQ

The variants in this test derive from B1. Put plainly: NanoBiT luciferase complementation reporter assay; HEK293T cells, co-transfection, read after 2 days; parent: 1; read off a plot. For orientation: A reporter such as luciferase makes a cellular process visible.
Take chain 1 V25A: the ratio to parent was ~0.41.
Consider chain 1 D77A, for which the ratio to parent is ~0.6.
For chain 1 R34A, the ratio to parent was ~0.63.
In the case of chain 1 H73A, the ratio to parent is ~0.98.
The same measure for chain 1 I26A: ~0.56.
